B1: Flap (30-nt 5'-flap) (structured_DNA)
DNA: TTCACGAGATTTACTTATTTCACTGCGGCTACATGATGCATCGTTAGGCGATTCCGCCTAACGATGCATCATGTCGCGAACCCTATTTAGGGTTCGCG
B2: Biotin-Flap, streptavidin-blocked (structured_DNA)
DNA: B1 DNA
modifications: 5' biotin
B3: Fork (structured_DNA)
DNA: TTCACGAGATTTACTTATTTCACTGCGGCTACATGATGCATCGTTAGGCGATTCCGCCTAACGATGCATCATGTTGTTACCCTTTGA
B4: Nick (structured_DNA)
DNA: ACATGATGCATCGTTAGGCGATTCCGCCTAACGATGCATCATGTCGCGAACCCTATTTAGGGTTCGCG
B5: Double-Flap (structured_DNA)
DNA: TTCACGAGATTTACTTATTTCACTGCGGCTACATGATGCATCGTTAGGCGATTCCGCCTAACGATGCATCATGTCGCGAACCCTATTTAGGGTTCGCGT
B6: 5'-Tail (structured_DNA)
DNA: TTCACGAGATTTACTTATTTCACTGCGGCTACATGATGCATCGTTAGGCGATTCCGCCTAACGATGCATCATGT
B7: Gap (20-nt) (structured_DNA)
DNA: ACATGATGCATCGTTAGGCGATTCCGCCTAACGATGCATCATGTTTTTTTTTTTTTTTTTTTTTCGCGAACCCTATTTAGGGTTCGCG

Assays:
[1] = molecular target: T1, Dna2 E675A (nuclease-defective) (UniProt P38859 1-1522, E675A); experiment: EMSA
T1 sequence (P38859 whole entry E675A): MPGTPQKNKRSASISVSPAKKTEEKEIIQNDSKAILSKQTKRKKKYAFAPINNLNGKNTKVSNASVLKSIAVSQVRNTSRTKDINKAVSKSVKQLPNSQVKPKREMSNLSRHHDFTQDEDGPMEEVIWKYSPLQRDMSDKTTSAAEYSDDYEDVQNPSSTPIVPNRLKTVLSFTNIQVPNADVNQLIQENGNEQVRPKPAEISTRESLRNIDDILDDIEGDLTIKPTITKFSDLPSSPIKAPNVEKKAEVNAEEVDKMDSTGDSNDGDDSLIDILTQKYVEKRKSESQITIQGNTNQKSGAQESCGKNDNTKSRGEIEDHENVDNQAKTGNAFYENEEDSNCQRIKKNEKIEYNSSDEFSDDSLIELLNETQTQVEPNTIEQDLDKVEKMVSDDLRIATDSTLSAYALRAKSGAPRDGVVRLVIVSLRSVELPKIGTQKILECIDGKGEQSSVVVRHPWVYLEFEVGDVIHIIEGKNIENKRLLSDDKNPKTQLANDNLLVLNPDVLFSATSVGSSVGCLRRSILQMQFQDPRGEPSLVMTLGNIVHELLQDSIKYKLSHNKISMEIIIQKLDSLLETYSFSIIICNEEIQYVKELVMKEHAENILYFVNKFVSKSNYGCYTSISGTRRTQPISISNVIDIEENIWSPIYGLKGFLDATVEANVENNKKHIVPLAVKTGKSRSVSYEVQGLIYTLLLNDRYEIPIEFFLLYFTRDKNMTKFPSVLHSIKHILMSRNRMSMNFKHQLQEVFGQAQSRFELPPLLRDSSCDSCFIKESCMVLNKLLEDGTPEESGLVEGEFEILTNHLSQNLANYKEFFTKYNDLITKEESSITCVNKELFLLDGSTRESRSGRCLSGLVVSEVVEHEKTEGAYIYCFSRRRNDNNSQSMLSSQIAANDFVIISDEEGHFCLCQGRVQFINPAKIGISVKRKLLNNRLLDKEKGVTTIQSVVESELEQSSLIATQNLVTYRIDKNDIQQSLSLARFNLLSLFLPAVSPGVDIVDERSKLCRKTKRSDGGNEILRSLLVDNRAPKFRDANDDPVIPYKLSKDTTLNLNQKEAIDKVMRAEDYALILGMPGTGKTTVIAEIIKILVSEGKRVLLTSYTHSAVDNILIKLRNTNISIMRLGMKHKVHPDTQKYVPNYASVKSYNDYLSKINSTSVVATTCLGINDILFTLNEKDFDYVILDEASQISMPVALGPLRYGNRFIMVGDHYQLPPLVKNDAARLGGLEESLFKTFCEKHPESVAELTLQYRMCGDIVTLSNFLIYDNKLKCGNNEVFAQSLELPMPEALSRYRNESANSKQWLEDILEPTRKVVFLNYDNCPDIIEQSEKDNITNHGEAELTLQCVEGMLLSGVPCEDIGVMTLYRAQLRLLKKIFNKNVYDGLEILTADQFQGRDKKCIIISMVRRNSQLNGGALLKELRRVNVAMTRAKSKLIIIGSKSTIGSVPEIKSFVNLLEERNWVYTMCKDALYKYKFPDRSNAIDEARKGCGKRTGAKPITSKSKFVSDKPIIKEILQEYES

[2] = molecular target: T1, Dna2 E675A (nuclease-defective); experiment: competition
[3] = molecular target: T1, Dna2 E675A (nuclease-defective); experiment: competition; remark: listed apart in the source
[4] = molecular target: T1, Dna2 E675A (nuclease-defective); experiment: DNase I footprinting

Binder | Kd [1] [nM] | other results
B1 | 8.4 | 
B2 |  | binding result [2]: binds
TTCACGAGATTTACTTATTTCACTGCGGCT (ssDNA) [ssDNA 30-nt] |  | binding result [3]: binds
B3 | 9.2 | 
B4 |  | binding result [4]: binds
B5 | 7 | 
B6 | 8.5 | 
B7 | 6.7 | 
